Results on 23 sequences are retold here after the DeepSol protein solubility set.

This data set is described as follows: soluble on expression in E. coli; label from the status in PepcDB or PDB records.
As for “MYTDSNNRNFDEVNHQHQQEQDFNGQSKYDYPQFNRPMGLRWRDDQRMMEYFMSNGPVETVPVMPILTEHPPASPFGRGPSTERPTTSSRYEYSSPSLEDIDLIDVLWRSDIAGEKGTRQVAPADQYECDLQTLTEKSTVAPLTAEENARYEDLSKGFYNGFFESFNNNQYQQKHQQQQREQIKTPTLEHPTQKAELEDDLFDEDLAQLFEDVSREEGQLNQLFDNKQQHPVINNVSLSEGIVYNQANLTEMQEMRDSCNQVSISTIPTTSTAQPETLFNVTDSQTVEQWLPTEVVPNDVFPTSNYAYIGMQNDSLQAVVSNGQIDYDHSYQSTGQTPLSPLIIGSSGRQQQTQTSPGSVTVTATATQSLFDPYHSQRHSFSDCTTDSSSTCSRLSSESPRYTSESSTGTHESRFYGKLAPSSGSRYQRSSSPRSSQSSIKIARVVPLASGQRKRGRQSKDEQLASDNELPVSAFQISEMSLSELQQVLKNESLSEYQRQLIRKIRRRGKNKVAARTCRQRRTDRHDKMSHYI”, the “soluble on expression in E. coli” value is “not soluble”.

Regarding “MGSDKIHHHHHHMNLSNDSLNKSDISPAVAQQAVGWLLEMQEGALDARRQHAWQSWLNGNSEHQRAWAHMQRVNQRLSGLSSPLAHAALGAPKSAGRRHALKLLLLLGAGSMAGWSLREQIALQPLLADYNSGVGEQRKVALSDGSRVQLNTASAVDVRFDAQQRLIKLLQGELLMSASADARPLNLLSAQGTVRASTGSSRFNLRQLDGRTQLAVFAGAIEVAPANKSGPGLMLRASQQVTFGRDAWDSVRTVDANSGAWADGMLVASRMKLSDFLAELGRYRRGRLNCDANVADLLISGSYPLADSERILDMLQLALPVRVQRFTRYWVNVQARV”, the “soluble on expression in E. coli” value was “not soluble”. As to “MSLFFGFTSCLDICPSTLTILGQAEKHRENLPETQRPQVLFVSINPDRDSPLRLSGYARAFHKNILTTTADTPALQRFATALGLRFRKVPGKSYAENPLDDTMDHPTAIVVLDPQGHHVGMIHPPFNAEEIPTDLQKLTKEITEGHHHHHH”, the “soluble on expression in E. coli” value is listed as “not soluble”. The result for “MPDFAKQGPIVIGGVGGSGTRLIAEIVMDMGFYLGGMLNQSKDLLYFSLLFKRPTWFSKVVTSNEQEIFRGLKILENRLTTQKELTGKDIKFIEKAAQTYRNGDLLAQKIKKNMLFPDPINRQLYRGWGWKEPNAHLFLPYIHRYFPNGKYIHVIRNGLNMAFSKNQQQLFNWGPLFGVTIPNNPMKIPNASLTYWIKANERAVMYGTEQMKGRFLLIQFDQLCVNPTPQLQKLAEFLAVDDLAIDEWSEKIDPAAAASKYKEADLEHHHHHH” reads “not soluble”; that for “PLENQELTPLFGQPDWFLGILPSQAGNLKVLDTARWVMPERYRDDYRDGLKYVISVQGYEWGLAVHQVSRSIRLDPAEVKWRSQRSQRPWLAGTVIEH”, “not soluble”; that for “MSLKVIDFRFRPNTPEIISGIANSNMFRAACKAIGFEKRQPQPLEQIVEDLDKRGVVLSVISGRDSETTYGSPANNGSVLAFCRAYPERFIGFWGLDPHKGMAAVRELRHAVNELGMRGASIDPYLAHLRPDDARYYPIYAACCDLNVPVFITTAPPPQVAGAVMDYTDPRHVDIVARDFPELRIVMSHGGYPFVNEAIFACLRNANVYMDCSEYEQAPMAEAYIQAMNGIIQDKVVFASAHPFIEQADALEVYARMPLSDEARHKVMYANACKVLGIEGHHHHHH”, “soluble”. The same measure for “VRQLSQPLKRLVVAARQFGQGRSVRLPLGPETPSEMAEVYRAFNQMAEDIEQGGRERELMLAGVSHDLRTPLTRLRLSLELLPESEREMVEDMIRDIEDMDAILDQFLAFIRDGRDEPVEEGDLTDLVREVVAPFNQTREQVRMALQPVPAMPLRRVSMKRLLGNLIDNALNHGGGSVEVASYVAGESAAPYVVLSVLDRGQGIDPAEVDSIFNPFIRGDKARGGKGTGLGLAIVKRIAAQHGGSVELRNRDGGGLEARVCLPLGLLLPRGAA”: “not soluble”. Regarding “MNEKKLVEALKRKEDWAYEVLYREFAPKIGSIAKSFLNTDDVDDVVQDVFLRIFKGIKKFRGDSKLSTWIYRIAVNVCKDYLQKYKKRNEFLTDFQEKDNEEEIYIQPEAKENVLDEVLRSITAERVQKALEKLSPEDRLLIKLRDIDGLSYEEIASVLQKPVGTVKSRLHYARKRLGNLLKEGETVER”, the “soluble on expression in E. coli” value is reported as “not soluble”. Regarding “MSLNKNEKVKIAYVGIGNRGQQIIEDFARTGMVEVVALCDVDMGAKHTQKVIGMYPKAKQFRDFRQMFDKAGKEFDAVAIATPDHSHFPISMLALASGKHVYVEKPLARTFYEAELLMQAALKRPNLATQVGNQGHSEANYFQFKAWMDAGIIKDVTAVTAHMNNEGHHHHHH”, the “soluble on expression in E. coli” value is recorded as “not soluble”. In the case of “MTTHRRRPKHDPKESEQEILNAAKQFLNERPFRELTVDEVMRRTGLKRPAFYVHFRDKHDLALRLVQAIGQELFGIADRWLEGDNPQEDLRRALVGLVEVYMKHSHVLRAFAEAASGDERVNSIYRAFVQEFISAAAQHIREEQATGQIQKDIDIDETARALIWLEERYLSDVFGRMPPADPEVVIRVLQNIWISTLYGSN”, the “soluble on expression in E. coli” value is “soluble”. The result for “ICMNVENKVTHKPLEFNYTDKYCGNVKNLISCKLYQHALTLIDSFRKDKTI” reads “not soluble”.

“MLFKRYGDPISLLRTYRLCDLMEFIFYVQEVEQEEKIYNQWLHTQMTQSLKEFKDQQKYRPLRKNKAKSTTKEEQQKALDFASQFVKPRKEGEVS”: the “soluble on expression in E. coli” value is recorded as “not soluble”. As for “STEDLLTYTLDEAERLTGSTLGFFDLISDDQSIMRSACSSNAKKDNCGHARHPIVINFKAPADVLQKKRAIIHNDHATLRHCNSKSVSHKEAIRELIVPVIRNGKVMAILEVGNKPANYDQNDIQLLNELSGVAWDIIARKHAEDSAQKTMK”, the “soluble on expression in E. coli” value was “not soluble”. With “MTDQPIIDYRFLEPLPRGIILAATPLGNIGDASPRLAQALAQAHVVAAEDTRRTRALAQALGVEITGQVLSNFDHNEQGRAQQLVEMARTHTVVVVTDAGMPIVSDPGFPLVEAAHKAGVPVTCFPGPSAVPTALALSGLHVGKFAFDGFAPRKQGQRRAWLESLQQEQRAVCFFESPHRIAATLADAAEVLGAKRRAAVARELTKTFEEVRRGGLGELAEWAAKGIKGEVSVVIEGVQHVQHEDVHSLVAVVEERVLAGERLKSACGEVAAHYGVSKKQLYDAVLESRAE”, the “soluble on expression in E. coli” value was “soluble”. For “TSDTPALLYIHGLNSSAQSKKACQLIALMKSLGLADRLQVPELHHHPRQAMLQLESAIGALGRPLLVGSSLGGYYATHLAQRHGLKAVLINPAVNPHQLFDGFLGMQQNLYTGEQWQLTEDHIKALAELEVPAPQDPQQFQVWLQTGDETLDYRRAEKFYRACALRIQAGGDHSFQGFAERLPALLSFAGFAPDLLQ”, the “soluble on expression in E. coli” value is reported as “not soluble”.

As to “MSTLSQLKPASLWQLFEKICSIPHPSKHEQKISLWIQDWAKELGLAIKEDAVGNLFIKKPATAGMEDRKGIILQAHMDMVPQKNNDTDHDFITDPIKPYVIDSGDWVTAEGTTLGADNGVGLASALAILASDDIPHGPLEVLVTIDEEAGMTGAFGLEAGWLDGDILINTDSEQEGEVYMGCAGGIDGNATFALTLEDVPSNYQAFNLSISGLKGGHSGVDIHTGRANANKLLVRFLLSASIDFDISLTELNGGSLRNAIPREANASFVVAKDKVEALKVALADYLSTISANLGAIETDIDMLLISPEDFEQCWTKATQASILRALNACPNGVIRMSDDIEGIVETSLNLGVIHTRGSKLNAMVLIRSLHDDGRLETQRMVQSVFELAGANVVFSGAYPGWKPNTDSAIMQTVRDTYESIFNKVPAVMVIHAGLECGLFKTAYPHWDMVSIGPTIKFPHSPDEKIEIATVEQYWQLLVAVLANIPKKLEHHHHHH”, the “soluble on expression in E. coli” value is reported as “soluble”. For “MGSDKIHHHHHHVATYNERLFDGKSFRSKLHYARYLWVNSWIKRWELPSYSMLELGCYDGKTIDFLSNKPATYAGYDANWEGGLDIAKTKWSMHPDYSFHTCEKPADFSADDSMYEVSVCLETLEHIPAADLEAYIVQLSKKTKQYCLVSVPNEKGPVLFFKHIIKSITQEKAQTEAYTLKEFLYGSIGRLDKVARRDCGHKGFDYDALAVLLKKYFTILKTEAIPYPAIPHALGFNVGFILKKN”, the “soluble on expression in E. coli” value was “not soluble”. Consider “ADTFNLAKDIHSRILSIDTHTDTPLWFKNGYSVGLRKDNMVSIPKMEEGKLDAQFLAAFIWQGKRDDASSQKAVESTTRLIQSIYDEVEQYKDFCGIALTEEDLVRLKNEGKKAFFIGIENGYAIGKDLKNIKKYKQMGVNYITLCHSYDNDICHSSTHTEDATQGLTQFGREVVKEMNRLGIMIDISHASEGTFWDVIKYSAQPIIASHSSSKALCDHDRNLTDEQLRALAKNGGVAQLCLLDAYINKKTKAASICDAVEHLDHMIKVAGIDHVGIGTDFDGGGGLQGCRGDNDLINLTIKMIEKGYTEEDLRKIWGGNLLRVMKQVQEAPLLSSKKRR”, for which the “soluble on expression in E. coli” value was “not soluble”. Take “KDRSIIAMGAWLEVLSEEKDGNRLARHHEHGKIWKKPTRHEDIADFFPFGNPIHNNTMIMRRSVIDGGLRYNTERDWAEDYQFWYDVSKLGRLAYYPEALVKYRLHANQVSSKYSIRQHEIAQGIQKTARNDFLQSMGFKTRFDSLEYRQIKAVAYELLEKHLPEEDFERARRFLYQCFKRTDTLPAGAWLDFAADGRMRRLFTLRQYFGILHRLLKNR”: the “soluble on expression in E. coli” value is reported as “not soluble”.

“MGSDKIHHHHHHMTIDDLKSFMLVCRLHSFSTAAVELSMTQSALSKRLQAIQQEVGSEFISTENRRQILITESGKVFYRYAQRIVSSYDELEQELKAYRELKKGNLQIGRVPVMSQYGLTKIINIFERSYPQIDIHLNELEGNDLLMVLKAGEIDAGIIRDIQTKTIDNNHFNSYTLDRDELKVVLPANDSLNNKKRISIEELANYQVISLESGSGIYEKMVEIYNNAGIPLNVGFKTTHIETIMGMIKNSDQITFLFKKSAMPFMNKQLVMLSLDQPIYSNLELICPRENQHKPALTKFIEYMKKYTSEPVESYP”: the “soluble on expression in E. coli” value is given as “not soluble”. On to “MKIVIIGGFLGGGKTTVLNHLLAESLKESLKPAVIMNEFGKMSVDGALVSEDIPLSELTEGCICCAMKADVSEQLHQLYLKEQPDIVFIECSGIAEPVSVLDACLTPILAPFTTITHMIGVIDASMYKHIKSFPKDIQGLFYEQLAYCSVLFVNKIDSADVETTSKLLKDLEVINPEADIQVGMHGSVTLPISVRQMTATSDNKHESLHKTINHQFVQSPVTCTKAEFIKRLACLPSHIYRLKGFMTFEDTTHTYLIQFTQGQYELTPVAFSKKVPEYLVLIGKGISKEDYQCLEQLEHHHHHH”, for which the “soluble on expression in E. coli” value is reported as “not soluble”.

“MIEIATSPATTTLVIAGDLDLAERDQFPEIAARVVGLRRQLLVIDMCRVTFMDSTGAAFLISLADSGRKRGGATVLRGCDDRDLFVLEVCGALELFRIDPDHACAPKTPATGVPAVEERPGRTR”: the “soluble on expression in E. coli” value is “not soluble”. For the sequence “MGSDKIHHHHHHMINVLILGAASQISRFLIPDLLADKTVYLTLFARQAPQRLGQYAGESRVTLVDGDWNQEADIEQVMSNQDIVFLASSSLVGNQNVVTVMKHTGVQRLIVAGGLGIDDEVAGKFGNWNTRMMGDYTPYKQAAKVILDSGLNTTYLRMTWLYDENGNEKYQIVPEGQPLRGTQVTRQAVAKLVTAIVRQPSLYQYANIGVVEPGTEWDKPSFY”, the “soluble on expression in E. coli” value is reported as “not soluble”.
